In PMC8259413:

Target: DNA polymerase beta (Pol β) (rat, UniProt P06766 1-335)
Test: NMR chemical shift titration

B1: 20-mer single-nucleotide gapped DNA (templating G) (dsDNA)
DNA 1: CGACCGACGGCGCATCAGCC
DNA 2: GGCTGATGCGC
DNA 3: GTCGGTCG
modifications: 5'-phosphate on downstream strand
binding result: binds
